Measured values taken from article PMC7667037.

Experiments:
Conditions in all cases: EMSA: 1 nM probe, 1 mM Tris-HCl pH 7.5, 0.1 mM EDTA, 0.2 mM DTT, 5 mM MgCl2, 10 mM KCl, 20 min 37 C; PhoP with 0.1 M acetyl phosphate; footprinting DNase I …
[1] = biological target: T1, PhoP (Escherichia coli O157:H7 (EHEC; strain EDL933?)) (UniProt Q8X738); assay: EMSA
T1 sequence: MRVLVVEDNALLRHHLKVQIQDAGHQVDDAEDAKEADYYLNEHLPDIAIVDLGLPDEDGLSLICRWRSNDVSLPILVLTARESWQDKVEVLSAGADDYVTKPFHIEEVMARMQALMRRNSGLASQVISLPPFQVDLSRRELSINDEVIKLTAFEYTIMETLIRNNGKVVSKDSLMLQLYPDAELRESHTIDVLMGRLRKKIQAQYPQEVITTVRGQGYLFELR

[2] = system: T2, LmiA (Z4267) (Escherichia coli O157:H7 (EHEC; strain EDL933?)), ORF:92023632; assay: EMSA
T2 sequence: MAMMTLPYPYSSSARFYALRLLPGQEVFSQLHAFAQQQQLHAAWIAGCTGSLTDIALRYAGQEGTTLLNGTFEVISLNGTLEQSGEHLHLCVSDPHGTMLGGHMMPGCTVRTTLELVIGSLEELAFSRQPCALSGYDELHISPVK

[3] = biological target: T1, PhoP (Escherichia coli O157:H7 (EHEC; strain EDL933?)); assay: competition

Sequence | binding [1] | binding [2] | also measured
GTCCAGTCAAAGAAAACAATTATCTCAGCCCCGCCCCTGTGGAATTTATTCCACTTTGCAGAATCACGAATAAGCGTAGCAAAATCTTTTCGTTGTGCCGTCACAAACCCTGACTTATATCAGAATATGACTGATGCAGCGTCGATATTATCCGTAATACGTCCGAGTTTCGGAGTACTCCAATGATGACATTGCCCTACCCATATT (double strand) [PlmiA-1] | no binding | – | –
CATTAGCCATTGGAAACTCACGTAATCATTAATTATGAATATTCCATTAAATAGTACTGTACAACAGCTTCCTTTCTACTCTATTCTTAGACGATGTAAGTTCACCATATTTTTTCTCATTGTTCAACCACCAGGATGAATAAAATTTAAAAATGTTATCCTCATATAAAATAAAACTTCTCAATGGTGCGATGCG (double strand) [PLEE4] | – | no binding | –
GTCCAGTCAAAGAAAACAATTATCTGACTTACGTCACGTTTTCAGCCCCGCCCCTGTGGAATTTATTCCACTTTGCAGAATCACGAATAAGCGTAGCAAAATCTTTTCGTTGTGCCGTCACAAACCCTGACTTATATCAGAATATGACTGATGCAGCGTCGATATTATCCGTAATACGTCCGAGTTTCGGAGTACTCCAATGATGACATTGCCCTACCCATATT (double strand) [PlmiA] | binds | – | –
AATATGGGTAGGGCAATGTCATCATTGGAGTACTCCGAAACTCGGACGTATTACGGATAATATCGACGCTGCATCAGTCATATTCTGATATAAGTCAGGGTTTGTGACGGCACAACGAAAAGATTTTGCTACGCTTATTCGTGATTCTGCAAAGTGGAATAAATTCCACAGGGGCGGGGCTGAGTTGGTGACGAGGGTCAGATAATTGTTTTCTTTGACTGGAC (double strand) [PlmiA-2] | no binding | – | –
AGATTCATCTGCAGGCTCTGAAGTAAGTATACGTGTGAATATTATTGCTTGAAAAAGCGTATTGGATAATATATACAGTATATGTACTTTATGTACATTGCAACTATTTAAATAATATAATAGTTGCCTATGGGATAATTTGGTTATTTATAACCAGGTAAATGTCTAAATTAGACAAAAGGAGAAAGATCAATGGAAGCAGCAAATTTAAGTCCTTCTGGTGCAGTAATG (double strand) [PLEE2/3] | – | no binding | –
GTCCAGTCAAAGAAAACAATTATCTGACTTACGTCACGTTTTCAGCCCCGCCCCTGTGGAATTTATTCCACTTTGCAGAATCACGAATAAGCGTAGCAAAATCTTTTCGTTGTGCCGTCACAAACCCTGACTTATATCAGAATATGACTGATGCAGCGTCGATATTATCCGTAATACGTCCGAGTTTCGGAGTACTCCAATGATGACATTGCCCTACCCATATT (double strand) [PlmiA unlabeled competitor] | – | – | binding [3]: binds
